Data from patent US20080038775A1 (published 2008).

B1: Dkk1mycHis (wild-type human Dkk1 with C-terminal c-myc and His6 tags, secreted by HEK293T cells; used purified or as conditioned media) (ligand)
chain: ATLNSVLNSNAIKNLPPPLGGAAGHPGSAVSAAPGILYPGGNKYQTIDNYQPYPCAEDEECGTDEYCASPTRGGDAGVQICLACRKRRKRCMRHAMCCPGNYCKNGICVSSDQNHFRGEIEETITESFGNDHSTLDGYSRRTTLSSKMYHTKGQEGSVCLRSSDCASGLCCARHFWSKICKPVLKEGQVCTKHRRKGSHGLEIFQRCYCGEGLSCRIQKDHHQASNSSRLHTCQRHSRGPFEQKLISEEDLNMHTGHHHHHH
modifications: N-linked glycosylation (mammalian pattern); 125I-labelled by the chloramine-T method only in the radioligand assay of Example 10
notes: Secreted protein; also called WT; wild-type Dkk1
B2: Recombinant human Dkk1 from R&D Systems (Cat. No. 1096-DK/CF), baculovirus/insect cell derived (ligand, UniProt O94907 32-266, looked up)
chain: TLNSVLNSNAIKNLPPPLGGAAGHPGSAVSAAPGILYPGGNKYQTIDNYQPYPCAEDEECGTDEYCASPTRGGDAGVQICLACRKRRKRCMRHAMCCPGNYCKNGICVSSDQNHFRGEIEETITESFGNDHSTLDGYSRRTTLSSKMYHTKGQEGSVCLRSSDCASGLCCARHFWSKICKPVLKEGQVCTKHRRKGSHGLEIFQRCYCGEGLSCRIQKDHHQASNSSRLHTCQRH
modifications: 125I-labelled in the radioligand assay of Example 10 only
notes: Bought protein; no myc tag; also called R&D Dkk1; R&D Systems Dkk1

Assays:
[1] = biological target: LRP5 protein (form not named at the place) (UniProt O75197); experiment: cell-based or functional assay
[2] = biological target: T1, LRP5prop3,4LBD V5His (propellers 3 and 4 and ligand binding domain of LRP5, amino acids 642 to 1376 of … (UniProt O75197 642-1376)); experiment: TR-FRET (anti-V5-Eu / anti-myc-Cy5), apparent Kd, concentrations of Dkk1 and LRP5prop34LBD varied, 50 mM PIPES pH 6.5
T1 construct: range 642-1376; Secreted from HEK293T cells co-transfected with RAP; also called LRP5VHis prop3,4; not shown: V5 (and His) tag from the pcDNA3.1/V5 expression vector
T1 sequence (looked up): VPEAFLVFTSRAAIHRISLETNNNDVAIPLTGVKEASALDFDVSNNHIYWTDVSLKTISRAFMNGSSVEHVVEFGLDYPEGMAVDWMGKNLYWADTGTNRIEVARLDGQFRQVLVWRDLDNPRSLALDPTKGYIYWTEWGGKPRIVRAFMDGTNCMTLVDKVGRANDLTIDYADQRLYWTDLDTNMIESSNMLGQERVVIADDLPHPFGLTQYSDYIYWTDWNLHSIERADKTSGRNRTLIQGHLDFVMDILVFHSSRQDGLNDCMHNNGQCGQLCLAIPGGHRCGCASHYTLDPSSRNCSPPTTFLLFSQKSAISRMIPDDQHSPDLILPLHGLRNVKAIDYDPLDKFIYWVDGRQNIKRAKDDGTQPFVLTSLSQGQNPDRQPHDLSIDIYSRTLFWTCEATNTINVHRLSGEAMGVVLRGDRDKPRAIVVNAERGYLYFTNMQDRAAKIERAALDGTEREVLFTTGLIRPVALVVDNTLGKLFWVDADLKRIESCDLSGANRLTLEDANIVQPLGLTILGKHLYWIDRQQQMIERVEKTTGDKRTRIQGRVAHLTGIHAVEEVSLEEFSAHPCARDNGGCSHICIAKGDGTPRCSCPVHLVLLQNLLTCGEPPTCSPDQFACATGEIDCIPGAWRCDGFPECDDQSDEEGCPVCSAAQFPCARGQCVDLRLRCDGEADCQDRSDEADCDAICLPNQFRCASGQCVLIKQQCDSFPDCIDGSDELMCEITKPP
Protocol: The time resolved fluorescence resonance energy transfer (TR-FRET) platform was chosen to develop an assay for Dkk1-LRP5prop34LBD interaction because the TR-FRET assay is highly sensitive, easy to set up and capable of detecting weak interactions. For this assay, two labeled molecules are added to the system. If an interaction occurs, the labels are brought into close proximity and energy transfer occurs to release energy at specific wavelengths that can be detected. For detection of interaction between Dkk1 and LRP5prop34LBD, the Dkk1 (tagged with myc) is effectively labeled using a Cy5 labeled monoclonal anti-myc antibody. […] Cy5 absorbs at 615 nm and emits energy at 665 nm which is detected. The measurement was conducted on a Wallac EnVision 2100 Multilabel Reader from PerkinElmer Life Science. […] The interaction between Dkk1 and LRP5prop3,4LBD is expressed as the ratio of fluorescence intensity at 665 nm over 615 nm, which represents the energy transfer from the europium to Cy5 dye. […]
Kdapp Determination. The observed Kdapp was determined by varying concentrations of Dkk1 and LRP5prop34LBD in the reaction mixture containing 50 mM PIPES (pH 6.5), 0.5 mM DTT, 0.01% Tween-20, 0.5 nM V5-mAb-Eu, and 15 nM ,myc-Ab-Cy5. […] Kd-value determined here is a Kdapp-value as the antibody concentration is limiting in the assay. […]

[3] = biological target: T1, LRP5prop3,4LBD V5His (propellers 3 and …); experiment: TR-FRET competition; untagged R&D Dkk1 titrated against myc-tagged Dkk1 binding to LRP5prop34LBD
Protocol: The time resolved fluorescence resonance energy transfer (TR-FRET) platform was chosen to develop an assay for Dkk1-LRP5prop34LBD interaction because the TR-FRET assay is highly sensitive, easy to set up and capable of detecting weak interactions. For this assay, two labeled molecules are added to the system. If an interaction occurs, the labels are brought into close proximity and energy transfer occurs to release energy at specific wavelengths that can be detected. For detection of interaction between Dkk1 and LRP5prop34LBD, the Dkk1 (tagged with myc) is effectively labeled using a Cy5 labeled monoclonal anti-myc antibody. The LRP5prop34LBD (tagged with V5) is effectively labeled using a Europium labeled monoclonal anti-V5 antibody. Europium is excited at 340 nm and re-emits energy at 615 nm. Cy5 absorbs at 615 nm and emits energy at 665 nm which is detected. The measurement was conducted on a Wallac EnVision 2100 Multilabel Reader from PerkinElmer Life Science. […] The interaction between Dkk1 and LRP5prop3,4LBD is expressed as the ratio of fluorescence intensity at 665 nm over 615 nm, which represents the energy transfer from the europium to Cy5 dye. […]
Dkk1 without a myc tag was purchased from R&D Inc. and is a Dkk1 synthesized in a baculovirus/insect cell system. […] The data were analyzed with Grafit 5 (Erithacus Software).

Row | Binder | activity in the TCF luciferase assay compared with baculovirus Dkk1 (FIG. 4) (% greater activity than R&D Systems Dkk1) [1] | Kd [2] [nM] | IC50 [3] [nM]
1 | B1 | 25 | 11.8 | –
2 | B2 | – | – | 1.42
